From patent publication US20210008207A1 (TECHNISCHE UNIVERSIT T M NCHEN, published 2021)

T1: CEACAM5 (human (species not restated for this …, UniProt P06731))
T1 sequence: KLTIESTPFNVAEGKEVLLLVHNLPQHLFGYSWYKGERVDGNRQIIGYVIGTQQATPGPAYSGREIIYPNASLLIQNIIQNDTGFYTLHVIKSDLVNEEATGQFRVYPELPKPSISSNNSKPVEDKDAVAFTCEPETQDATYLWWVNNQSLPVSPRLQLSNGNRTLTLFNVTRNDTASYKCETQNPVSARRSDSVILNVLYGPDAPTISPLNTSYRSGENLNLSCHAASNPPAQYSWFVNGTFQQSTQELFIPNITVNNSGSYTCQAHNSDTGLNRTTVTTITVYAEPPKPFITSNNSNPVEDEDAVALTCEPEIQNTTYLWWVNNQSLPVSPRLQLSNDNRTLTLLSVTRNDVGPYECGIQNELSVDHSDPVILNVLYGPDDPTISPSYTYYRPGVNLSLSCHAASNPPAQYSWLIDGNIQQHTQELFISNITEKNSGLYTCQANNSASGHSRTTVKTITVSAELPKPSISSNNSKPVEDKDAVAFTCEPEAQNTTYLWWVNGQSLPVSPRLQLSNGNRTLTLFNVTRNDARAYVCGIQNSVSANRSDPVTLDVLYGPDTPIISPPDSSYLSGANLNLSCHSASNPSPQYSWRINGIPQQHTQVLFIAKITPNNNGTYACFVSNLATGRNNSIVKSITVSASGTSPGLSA

T2: CEACAM8 (human (species not restated for this …, UniProt P31997))
T2 sequence: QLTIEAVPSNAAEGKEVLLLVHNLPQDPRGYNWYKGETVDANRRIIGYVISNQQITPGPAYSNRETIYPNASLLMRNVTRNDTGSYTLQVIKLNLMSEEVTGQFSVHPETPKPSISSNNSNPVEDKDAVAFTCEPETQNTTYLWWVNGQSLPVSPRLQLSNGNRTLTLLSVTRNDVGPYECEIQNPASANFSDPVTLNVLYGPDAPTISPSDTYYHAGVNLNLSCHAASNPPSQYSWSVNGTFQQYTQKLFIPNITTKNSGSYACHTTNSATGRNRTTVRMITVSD

T3: recombinant human CEACAM1 N-domain (C1ND; residues 35-142) with C-terminal Strep-Tag II, made in Expi293 cells (human, UniProt P13688 35-142, N-glycosylated (three glycosylation forms beside the non-glycosylated protein))
T3 construct: range 35-142; also called N-terminal domain of human CEACAM1; huCEACAM1-ND; not shown: C-terminal Strep-Tag II
T3 sequence: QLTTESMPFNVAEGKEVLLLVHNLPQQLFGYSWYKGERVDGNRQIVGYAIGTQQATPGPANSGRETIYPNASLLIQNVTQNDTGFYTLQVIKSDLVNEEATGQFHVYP

T4: E. coli expressed human CEACAM1 N-domain (Ec-C1ND) with C-terminal His6 tag, non-glycosylated (human, UniProt P13688 35-142)
T4 construct: range 35-142; also called non-glycosylated N-terminal domain of human CEACAM1; hC1ND
T4 sequence: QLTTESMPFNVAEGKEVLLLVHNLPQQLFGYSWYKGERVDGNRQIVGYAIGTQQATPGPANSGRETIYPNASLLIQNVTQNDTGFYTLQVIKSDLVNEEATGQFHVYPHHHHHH


Experiments:
CEACAM5 = target: T1, CEACAM5; assay: ELISA, panel CEACAM5; HopQ fragment titrated [cont.) f]
CEACAM8 = target: T2, CEACAM8; assay: ELISA, panel CEACAM8; protein titrated [cont.) f]
[1] = target: T3, recombinant human CEACAM1 N-domain …; assay: ELISA, C1ND coated, His-tag detected
[2] = target: T3, recombinant human CEACAM1 N-domain …; assay: isothermal titration calorimetry, 25 °C; ITC in solution, folded glycosylated C1ND; stoichiometry, not affinity
[3] = target: T4, E. coli expressed human CEACAM1 …; assay: ITC; 25 µM Ec-C1ND in the cell titrated with 250 µM HopQ^AD, 25 °C
[4] = target: T3, recombinant human CEACAM1 N-domain …; assay: isothermal titration calorimetry, 25 °C; ITC in solution, folded glycosylated C1ND (FIG. 8a)
[5] = target: T3, recombinant human CEACAM1 N-domain …; assay: ITC; 25 µM C1ND in the cell titrated with 250 µM HopQ^AD, 25 °C
[6] = target: T3, recombinant human CEACAM1 N-domain …; assay: ELISA; C1ND coated, HopQ fragment titrated, α-6×His-HRP detection

Binder | EC50 (read off the curve) (CEACAM5) [µg/well] | binding result (CEACAM8) | fold reduction of binding affinity against HopQ^AD [1] [fold] | stoichiometry [2] [HopQ^AD per C1ND] | Kd [3] [nM] | ΔH [3] [kcal/mol] | ΔS [3] [cal/mol/deg] | Kd [4] [nM] | ΔH [5] [kcal/mol] | ΔS [5] [cal/mol/deg] | EC50 (read off the curve) [6] [µg/well]
HopQ^ADΔID, HopQ^AD in which amino acids 190-218 of the mature protein (the HopQ insertion domain) are replaced by two glycines (other, also called HopQ-ID deletion mutant; mutant HopQ^AD lacking the HopQ-ID) AVQKVKNADKVQKLSDTYEQLSRLLTNDNGTNSKTSAQAINQAVNNLNERAKTLAGGTTNSPAYQATLLALRSVLGLWNSMGYAVICGGYTKSPGENNQKDFHYTDENGNGTTINCGGSTNSNGTHSYNGTNTLKADKNVSLSIEQYEKIHEAYQILSKALKQAGLAPLNSKGGGDAQNLLTQAQTIVNTLKDYCPILIAKSSSSNGGTNNANTPSWQTAGGGKNSCATFGAEFSAASDMINNAQKIVQETQQLSANQPKNITQPHNLNLNSPSSLTALAQKMLKNAQSQAEILKLANQVESDFNKLSSGHLKDYIGKCDASAISSANMTMQNQKNNWGNGCAGVEETQSLLKTSAADFNNQTPQINQAQNLANTLIQELGNNPFRNMGMIASSTTNNGAHHHHHH | ~0.08 | no binding (tested: 10 µg/well) | ~10 | – | – | – | – | – | – | – | –
HopQ adhesin domain (HopQ^AD), type I HopQ fragment of H. pylori strain G27, residues 37-463 (residu (other, also called HopQ^AD I) AVQKVKNADKVQKLSDTYEQLSRLLTNDNGTNSKTSAQAINQAVNNLNERAKTLAGGTTNSPAYQATLLALRSVLGLWNSMGYAVICGGYTKSPGENNQKDFHYTDENGNGTTINCGGSTNSNGTHSYNGTNTLKADKNVSLSIEQYEKIHEAYQILSKALKQAGLAPLNSKGEKLEAHVTTSKYQQDNQTKTTTSVIDTTNDAQNLLTQAQTIVNTLKDYCPILIAKSSSSNGGTNNANTPSWQTAGGGKNSCATFGAEFSAASDMINNAQKIVQETQQLSANQPKNITQPHNLNLNSPSSLTALAQKMLKNAQSQAEILKLANQVESDFNKLSSGHLKDYIGKCDASAISSANMTMQNQKNNWGNGCAGVEETQSLLKTSAADFNNQTPQINQAQNLANTLIQELGNNPFRNMGMIASSTTNNGAHHHHHH | ~0.04 | no binding (tested: 10 µg/well) | – | 1 | 417 | -16.7 | -26.8 | 296 | -13 | -13.7 | ~0.2
